# System: C100Flag recombinant protein (Met + APP695 C-terminal fragment + Flag)
# Sequence (chain, as listed by the source): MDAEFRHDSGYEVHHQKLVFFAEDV
substance,measurement,value
γ3 protease in a membrane preparation from HeLa S3 cells,"γ-secretase activity (cleavage of the substrate, Aβ products detected by ECL)",significant γ-secretase activity remains at pH 6.0 (the pH optimum for γ-secretase activity associated with γ3 protease)

# Source: patent US20050065076
